{"source": "paper PMC12102759", "target": "G3BP1 NTF2-like domain (human) (UniProt Q13283)", "sequence (Q13283 1-139)": "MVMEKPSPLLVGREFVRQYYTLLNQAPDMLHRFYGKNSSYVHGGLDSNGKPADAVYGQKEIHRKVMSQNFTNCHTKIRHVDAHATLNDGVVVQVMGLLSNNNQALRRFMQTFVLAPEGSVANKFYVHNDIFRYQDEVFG", "assay": "fluorescence polarisation"}
{"substance": "SARS-CoV-2 N wt peptide 12-26 (peptide; other documents disagree on this pair)", "values": [{"measurement": "IC50", "result": 8.7, "unit": "µM"}]}
